B1: LINE1-full (parent)
chain: UACGUAGGUGGUUUUCCCCUGAUAGUGCUAAGGGGGCCUGGAAGUUUGGACUGGGCAGAGCUCAACACAGCGUGGCAAAGUGGCUGUGGCUAGACUGCCUCUCUGGAUUCCUCGUCACUCAGCAGGGCAUCUCUGAGAGAAAUGCC

The variants in the series derive from B1. The experiment in a line: self-cleavage, relative activity (ratio to wild type); higher = more cleavage; in vitro, sequencing; the parent is a self-cleaving ribozyme.
With UACGUAGGUGGUUUUCCCCUGAUAGUGCUAAGGGGGCCAGGAAGUCUGGACUGGGCAGAGCUCAACACAGCGUGGCAAAGUGGCUGUGGCUAGACUGCCUCUCUGGAUUCCUCGUCACUCAGCAGGGCAUCUCUGAGAGAAAUGCC [U39A U46C], the self-cleavage was found to be 1.5.
To UACGUAGGUGGUUUUCCCCUGAUAGUGCUAAGGGGGCCAGGAAGUUUGGACUGGGCAGAGCUCAACACAGCGUGGCAAAGUGGCUGUGGCUAGACUGCCUCUCUGAAUUCCUCGUCACUCAGCAGGGCAUCUCUGAGAGAAAUGCC [U39A G106A] belongs 1.35.
To UACGUAGGUGGUUUUCCCCUGAUAGUGCUAAGGGGGCCAGGAAGUUUGGACUGGGCAGAGCUCAACACAGCGUGGCAAAGUGGCUGUGGCCAGACUGCCUCUCUGGAUUCCUCGUCACUCAGCAGGGCAUCUCUGAGAGAAAUGCC [U39A U91C] belongs 0.43; to UACGUAGGUGGUUUUCCCCUGAUAGUGCUAAGGGGGCCAGGAAGUUUGGACUGGGCAGAACUCAACACAGCGUGGCAAAGUGGCUGUGGCUAGACUGCCUCUCUGGAUUCCUCGUCACUCAGCAGGGCAUCUCUGAGAGAAAUGCC [U39A G60A], 0.05.
To UACGUAGGUGGUUUUCCCCUGAUAGUGCUAAGGGGGCCAGGAAGUUUGGACUGGGCAGAGCUCAACACAGCGUGGCAAAGUGGCUGUGGCUAGACUGCCUCUCUGGAUUCCUCGUCACUCAACAGGGCAUCUCUGAGAGAAAUGCC [U39A G122A] belongs 0.54.
For the variant UACGUAGGUGGUUUUCCCCUGAUAGUGCUAAGGGGGCCAGGAAGUUUGGACUGGGCAGAGCUCAACACAGCGUGGCAAAGUGGCUGUGGCUAGACUGCCUCUCUUGAUUCCUCGUCACUCAGCAGGGCAUCUCUGAGAGAAAUGCC [U39A G105U], the self-cleavage was 1.23.
To UACGUAGGUGGUUUUCCCCUGAUAGUGCUAAGGGGGCCAGGAAGUUUGGACUGGGCAGAGCUCAACACAGCGUGGCAAAGUGGCUGCGGCUAGACUGCCUCUCUGGAUUCCUCGUCACUCAGCAGGGCAUCUCUGAGAGAAAUGCC [U39A U87C] belongs 0.22.
The result for UACGUAGGUGGUUUUCCCCUGAUAGUGCUAAGGGGGCCAGGAAGUUUGGACUGGGCAGAGCUCAACACAGCGUGGCAAAGUGGCUGUGGCUAGGCUGCCUCUCUGGAUUCCUCGUCACUCAGCAGGGCAUCUCUGAGAGAAAUGCC [U39A A94G] reads 0.36; that for UACGUAGGUGGUUUUCCCCUGAUAGUGCUAAGGGGGCCAGGAAGUUUGGACUGGGCAGAGCUCAACACAGCGUGGCAAAGUGGCUGUGGCUAGACUGCCUCUCUGGAUUCCUCGUCACUUAGCAGGGCAUCUCUGAGAGAAAUGCC [U39A C120U], 1.56.
The result for UACGUAGGUGGUUUUCCCCUGAUAGUGCUAAGGGGGCCAGGAAGUUUGGACUGGGCAGAGCUCAACACAGCGUGGCAAAGUGGCUGUGGCUAGACUGCCUCUCUGGAUUCCUCGUCACUCAGCAGGGCAUCUCUGAGGGAAAUGCC [U39A A138G] reads 1.27; that for UACGUAGGUGGUUUUCCCCUGAUAGUGCUAAGGGGGCCAGGAAGUUUGGACUGGGCAGAGCUCAACACAGCGUGGCAAAGUGGCUGUGGCUAGACUGCCUCUCUGGAUUCCUCGUCACUCAGCAGGGCAUCUCUGAGUGAAAUGCC [U39A A138U], 1.75; that for UACGUAGGUGGUUUUCCCCUGAUAGUGCUAAGGGGGCCAGGAAGUUUGGACUGGGCAGAGCUCAACACAGCGUGGCAAAGUGGCUGUGACUAGACUGCCUCUCUGGAUUCCUCGUCACUCAGCAGGGCAUCUCUGAGAGAAAUGCC [U39A G89A], 0.06.
Regarding UACGUAGGUGGUUUUCCCCUGAUAGUGCUAAGGGGGCCAGGAAGUUUGGACUGGGCAGAGCUCAACACAGCGUGGCAAAGUGGCUGUGGCUAGACUGCCUCACUGGAUUCCUCGUCACUCAGCAGGGCAUCUCUGAGAGAAAUGCC [U39A U102A], the self-cleavage was 1.62.
As for UACGUAGGUGGUUUUCCCCUGAUAGUGCUAAGGGGGCCAGGAAGUUUGGACUUGGCAGAGCUCAACACAGCGUGGCAAAGUGGCUGUGGCUAGACUGCCUCUCUGGAUUCCUCGUCACUCAGCAGGGCAUCUCUGAGAGAAAUGCC [U39A G53U], the self-cleavage stood at 1.63.
The result for UACGUAGGUGGUUUUCCCCUGAUAGUGCUAAGGGGGCCAGGAAGUUUGGACUGGGCAGAGCUCAACACAGCGUGGCAAAGUGGCUGUGGCUAGACUGCCUCUCUGGAUUCCUCGUCACUCAGCGGGGCAUCUCUGAGAGAAAUGCC [U39A A124G] reads 0.97; that for UACGUAGGUGGUUUUCCCCUGAUAGUGCUAAGGGGGCCAGGAAGUUUGGACUGGGCAGAGCUCAACACAGCGUGGCAAAGUGGCUGUGGCUAGACUGCCUCUUUGGAUUCCUCGUCACUCAGCAGGGCAUCUCUGAGAGAAAUGCC [U39A C103U], 1.74; that for UACGUAGGUGGUUUUCCCCUGAUAGUGCUAAGGGGGCCAGGAAGUUUGGACUGGGCAGAGCUCAACACAGCGUGGCAAAGUGGCUGUGGCUAGACUGCCUCUCUGGGUUCCUCGUCACUCAGCAGGGCAUCUCUGAGAGAAAUGCC [U39A A107G], 1.42.
With UACGUAGGUGGUUUUCCCCUGAUAGUGCUAAGGGGGCCAGGAAGUUUGGACUGGGCAGAGCUCAACACAGCGUGGCAAAGUGGCUGUGGCUAGACUGCCUCUCUGGUUUCCUCGUCACUCAGCAGGGCAUCUCUGAGAGAAAUGCC [U39A A107U], the self-cleavage stood at 1.43.
The result for UACGUAGGUGGUUUUCCCCUGAUAGUGCUAAGGGGGCCAGGAAGUUUGGACUGGGCAGAGCUCAACACAGCGUGGCAAAGUGGCUGUGGCUAGACUGCCUCUCCGGAUUCCUCGUCACUCAGCAGGGCAUCUCUGAGAGAAAUGCC [U39A U104C] reads 1.57; that for UACGUAGGUGGUUUUCCCCUGAUAGUGCUAAGGGGGCCAGGAAGUUUGGACUGGGCAGAGCUCAACACAGCGUGGCAAAGUGGCUGUGGCUAGACUGCCUCUCUGGAUUCCCCGUCACUCAGCAGGGCAUCUCUGAGAGAAAUGCC [U39A U112C], 1.38.
The result for UACGUAGGUGGUUUUCCCCUGAUAGUGCUAAGGGGGCCAGGAAGUUUGGACUGGGCAGAGCUCAACACAGCGUGGCAAAGUGGCUGUGGCUAGACUGCCUCUCUGGAUUCCUCGUCACUCAGCAGGGCAUCUCUGAGAGUAAUGCC [U39A A140U] reads 1.23; that for UACGUAGGUGGUUUUCCCCUGAUAGUGCUAAGGGGGCCAGGAAGUUUGGACUGGGCAGAGCUCAACACAGCGUGGCAAAGUGGCUGUGGCUAGACUGCCUCUCUGGAUUCCUCGUCACUCAGCAGGGCAUCUCUGAGAGAACUGCC [U39A A142C], 1.59.
The result for UACGUAGGUGGUUUUCCCCUGAUAGUGCUAAGGGGGCCAGGAAGUUUGGACCGGGCAGAGCUCAACACAGCGUGGCAAAGUGGCUGUGGCUAGACUGCCUCUCUGGAUUCCUCGUCACUCAGCAGGGCAUCUCUGAGAGAAAUGCC [U39A U52C] reads 1.72; that for UACGUAGGUGGUUUUCCCCUGAUAGUGCUAAGGGGGCCAGGAAGUUUGGACUGGGCAGAGCUCAACACAGCGUGGCAAAGUGGCUGUGGCUAGACGGCCUCUCUGGAUUCCUCGUCACUCAGCAGGGCAUCUCUGAGAGAAAUGCC [U39A U96G], 0.14; that for UACGUAGGUGGUUUUCCCCUGAUAGUGCUAAGGGGGCCAGGAAGUUUGGACUGGGCAGAGCUCAACACAGCGUGGCAAAGUGGCUGUGGCUAGACCGCCUCUCUGGAUUCCUCGUCACUCAGCAGGGCAUCUCUGAGAGAAAUGCC [U39A U96C], 0.19.
UACGUAGGUGGUUUUCCCCUGAUAGUGCUAAGGGGGCCAGGAAGUUUGGACUGGGCAGAGCUCAACACAGCGUGGCAAAGUGGCUGUGGCUAGACAGCCUCUCUGGAUUCCUCGUCACUCAGCAGGGCAUCUCUGAGAGAAAUGCC [U39A U96A]: the self-cleavage turned out to be 0.04.
The result for UACGUAGGUGGUUUUCCCCUGAUAGUGCUAAGGGGGCCAGGAAGUUUGGACUGGGCAGAGCUCAACACAGCGUGGCAAAGUGGCUGUGGCUAGACUGCCUCUCUGGAUUCCUCGUCACUCAGCAGGGCGUCUCUGAGAGAAAUGCC [U39A A129G] reads 1.27.
To UACGUAGGUGGUUUUCCCCUGAUAGUGCUAAGGGGGCCAGGAAGUUUGGACUGGGCAGAGCUCAACACAGCGUGGCAAAGUGGCUGUGGCUAGACUGCCUCUCUGGAUUCCUCGUCACUCAGCAGGGCUUCUCUGAGAGAAAUGCC [U39A A129U] belongs 1.65; to UACGUAGGUGGUUUUCCCCUGAUAGUGCUAAGGGGGCCAGGAAGUUAGGACUGGGCAGAGCUCAACACAGCGUGGCAAAGUGGCUGUGGCUAGACUGCCUCUCUGGAUUCCUCGUCACUCAGCAGGGCAUCUCUGAGAGAAAUGCC [U39A U47A], 0.93.
The result for UACGUAGGUGGUUUUCCCCUGAUAGUGCUAAGGGGGCCAGGAAGUUUGGACUGGGCAGAGCUCAACACAGCGUGGCAAAGUGGCUGUGGCUAGACUGCCUCUCUGGAUUCCUCGUCGCUCAGCAGGGCAUCUCUGAGAGAAAUGCC [U39A A117G] reads 1.39; that for UACGUAGGUGGUUUUCCCCUGAUAGUGCUAAGGGGGCCAGGAAGUUUGGACUGGGCAGAGCUCAACACAGCGUGGCAAAGUGGCUGUGGCUAGACUGCCUCUCUGGAUUCCUCAUCACUCAGCAGGGCAUCUCUGAGAGAAAUGCC [U39A G114A], 1.19; that for UACGUAGGUGGUUUUCCCCUGAUAGUGCUAAGGGGGCCAGGAAGUUUGGACUGGGCAGAGCUCAACACAGCGUGGCAAAGUGGCUGUGGCUAGACUGCCUCUCUGGAUUCCUCUUCACUCAGCAGGGCAUCUCUGAGAGAAAUGCC [U39A G114U], 1.15.
For UACGUAGGUGGUUUUCCCCUGAUAGUGCUAAGGGGGCCAGGAAGUUUGGACUGGGCAGAGCUCAACACAGCGUGGCAAAGAGGCUGUGGCUAGACUGCCUCUCUGGAUUCCUCGUCACUCAGCAGGGCAUCUCUGAGAGAAAUGCC [U39A U81A], the self-cleavage was found to be 2.08.
To UACGUAGGUGGUUUUCCCCUGAUAGUGCUAAGGGGGCCAGGAAGUUUGGACUGGGCAGAGCUCAACACAGCGUGGCAAAGUGGCUGUGGCUAGACUGCCUCUCUGGACUCCUCGUCACUCAGCAGGGCAUCUCUGAGAGAAAUGCC [U39A U108C] belongs 1.24.
As for UACGUAGGUGGUUUUCCCCUGAUAGUGCUAAGGGGGCCAGGAAGUUUGGACUGGGCAGAGCUCAACACAGCGUAGCAAAGUGGCUGUGGCUAGACUGCCUCUCUGGAUUCCUCGUCACUCAGCAGGGCAUCUCUGAGAGAAAUGCC [U39A G74A], the self-cleavage was determined as 0.88.
The result for UACGUAGGUGGUUUUCCCCUGAUAGUGCUAAGGGGGCCAGGAAGUUUGGACUGGGCAGAGCUCAACACAGCGUGGCAAAGUGGCUGUGGCUAGACUGCCCCUCUGGAUUCCUCGUCACUCAGCAGGGCAUCUCUGAGAGAAAUGCC [U39A U100C] reads 1.67; that for UACGUAGGUGGUUUUCCCCUGAUAGUGCUAAGGGGGCCAGGAAGUUUGGACUGGGCAGAGCUCAACACAGCGUGGCAAAGUGGCUGUGGCUUGACUGCCUCUCUGGAUUCCUCGUCACUCAGCAGGGCAUCUCUGAGAGAAAUGCC [U39A A92U], 0.57; that for UACGUAGGUGGUUUUCCCCUGAUAGUGCUAAGGGGGCCAGGAAGUUUGGACUGGGCAGAGCUUAACACAGCGUGGCAAAGUGGCUGUGGCUAGACUGCCUCUCUGGAUUCCUCGUCACUCAGCAGGGCAUCUCUGAGAGAAAUGCC [U39A C63U], 0.43.
To UACGUAGGUGGUUUUCCCCUGAUAGUGCUAAGGGGGCCAGGAAGUUUGGACUGGGCAGAGCUCAACACAGCAUGGCAAAGUGGCUGUGGCUAGACUGCCUCUCUGGAUUCCUCGUCACUCAGCAGGGCAUCUCUGAGAGAAAUGCC [U39A G72A] belongs 1.81.

Values taken from the RNAGym collection of RNA variant scans (doi:10.7554/elife.90254).
